T1: Myc-KIF5C-Halo (mouse, UniProt P28738 1-956)
T1 sequence (looked up): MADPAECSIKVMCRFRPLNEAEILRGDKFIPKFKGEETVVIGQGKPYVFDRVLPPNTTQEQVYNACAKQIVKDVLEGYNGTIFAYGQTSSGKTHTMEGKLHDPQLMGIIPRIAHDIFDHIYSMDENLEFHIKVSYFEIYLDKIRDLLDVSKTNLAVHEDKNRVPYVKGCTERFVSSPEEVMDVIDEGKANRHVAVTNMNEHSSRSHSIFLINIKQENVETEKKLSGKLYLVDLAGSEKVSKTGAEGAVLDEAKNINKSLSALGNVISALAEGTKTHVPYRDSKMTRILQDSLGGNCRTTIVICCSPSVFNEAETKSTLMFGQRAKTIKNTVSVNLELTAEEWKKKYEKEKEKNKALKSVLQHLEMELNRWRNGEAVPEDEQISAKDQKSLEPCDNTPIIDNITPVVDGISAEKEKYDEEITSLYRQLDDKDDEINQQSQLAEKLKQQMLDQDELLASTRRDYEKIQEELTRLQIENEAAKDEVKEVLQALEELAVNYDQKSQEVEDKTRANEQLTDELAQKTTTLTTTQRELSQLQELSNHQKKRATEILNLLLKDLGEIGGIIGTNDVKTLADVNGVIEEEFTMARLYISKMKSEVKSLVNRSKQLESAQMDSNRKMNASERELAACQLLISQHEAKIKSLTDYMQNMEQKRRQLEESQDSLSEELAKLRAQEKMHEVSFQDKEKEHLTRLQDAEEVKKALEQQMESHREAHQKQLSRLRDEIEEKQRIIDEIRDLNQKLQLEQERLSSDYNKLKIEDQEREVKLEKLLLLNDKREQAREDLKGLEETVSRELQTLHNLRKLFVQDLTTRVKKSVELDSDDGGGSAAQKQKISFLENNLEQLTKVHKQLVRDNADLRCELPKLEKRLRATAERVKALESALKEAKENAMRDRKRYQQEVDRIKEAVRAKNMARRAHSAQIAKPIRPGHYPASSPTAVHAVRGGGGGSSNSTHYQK


Experiments:
[1] = target: dynein heavy chain (endogenous, COS-7); assay: co-immunoprecipitation (Halo antibody IP, western blot quantification); conditions: extracts from COS-7 cells transfected with Myc-KIF5B and Halo-tagged constructs; mean ± s.d. from three independent experiments; parent: est. 0.21; read off a plot
Myc-KIF5C-Halo = target: T1, Myc-KIF5C-Halo; assay: cell-based or functional assay

response [1]	frequency of KIF5C runs along dynamic microtubules (single-molecule TIRF of COS-7 lysate) with against without exogenous HA-TRAK2 (Myc-KIF5C-Halo) [fold]	Molecule
0.08	–	Halo-TRAK2 (from UniProt O60296) A129V; A130V
0.07	–	Halo-TRAK2 (from UniProt O60296) I132D
–	> 3	HA-TRAK2 (natural protein, UniProt O60296 1-914, looked up) MSQSQNAIFTSPTGEENLMNSNHRDSESITDVCSNEDLPEVELVSLLEEQLPQYRLKVDTLFLYENQDWTQSPHQRQHASDALSPVLAEETFRYMILGTDRVEQMTKTYNDIDMVTHLLAERDRDLELAARIGQALLKRNHVLSEQNESLEEQLGQAFDQVNQLQHELCKKDELLRIVSIASEESETDSSCSTPLRFNESFSLSQGLLQLEMLQEKLKELEEENMALRSKACHIKTETVTYEEKEQQLVSDCVKELRETNAQMSRMTEELSGKSDELIRYQEELSSLLSQIVDLQHKLKEHVIEKEELKLHLQASKDAQRQLTMELHELQDRNMECLGMLHESQEEIKELRSRSGPTAHLYFSQSYGAFTGESLAAEIEGTMRKKLSLDEESSLFKQKAQQKRVFDTVRIANDTRGRSISFPALLPIPGSNRSSVIMTAKPFESGLQQTEDKSLLNQGSSSEEVAGSSQKMGQPGPSGDSDLATALHRLSLRRQNYLSEKQFFAEEWQRKIQVLADQKEGVSGCVTPTESLASLCTTQSEITDLSSASCLRGFMPEKLQIVKPLEGSQTLYHWQQLAQPNLGTILDPRPGVITKGFTQLPGDAIYHISDLEEDEEEGITFQVQQPLEVEEKLSTSKPVTGIFLPPITSAGGPVTVATANPGKCLSCTNSTFTFTTCRILHPSDITQVTPSSGFPSLSCGSSGSSSSNTAVNSPALSYRLSIGESITNRRDSTTTFSSTMSLAKLLQERGISAKVYHSPISENPLQPLPKSLAIPSTPPNSPSHSPCPSPLPFEPRVHLSENFLASRPAETFLQEMYGLRPSRNPPDVGQLKMNLVDRLKRLGIARVVKNPGAQENGRCQEAEIGPQKPDSAVYLNSGSSLLGGLRRNQSLPVIMGSFAAPVCTSSPKMGVLKED

Reference: article PMC8319186, “Mitochondrial adaptor TRAK2 activates and functionally links opposing kinesin and dynein motors” (Nature Communications, 2021)
